In patent publication US20110034372A1:
pKd, pKi: −log10 of the molar value. Each block holds one substance with its values, some of them ahead of it.

Legend:
[1] = molecular target: cell surface GDF-8 binding proteins on L6 myoblasts; test: I-125 labeled GDF-8 receptor-ligand binding assay on myoblast cells
[2] = molecular target: myostatin mature C-terminal dimer (purified from CHO cell conditioned medium) (UniProt O08689); test: inhibition of labeled myostatin binding to Act RIIB-transfected COS-7 cells
Sequence of myostatin mature C-terminal dimer (purified from CHO cell conditioned medium) (O08689 268-376 limits assumed): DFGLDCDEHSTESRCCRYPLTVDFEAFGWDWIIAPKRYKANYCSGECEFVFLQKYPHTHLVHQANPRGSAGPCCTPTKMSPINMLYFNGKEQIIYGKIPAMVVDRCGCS

[3] = molecular target: myostatin mature C-terminal dimer (purified from CHO cell conditioned medium) (UniProt O08689); test: inhibition of labeled myostatin binding to Act RIIB-transfected COS-7 cells; reference: follistatin Ki of approximately 470 pM

Sequence of Recombinant human GDF-8 (rhGDF-8) homodimer (O14793 267-374): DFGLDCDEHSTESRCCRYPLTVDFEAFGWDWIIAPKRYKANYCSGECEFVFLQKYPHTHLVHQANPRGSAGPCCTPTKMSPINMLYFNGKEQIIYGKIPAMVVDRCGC

pKd [1]: 9.43
Substance: Recombinant human GDF-8 (rhGDF-8) homodimer (from UniProt O14793 267-374) (ligand)

pKi [2]: 9.33
Substance: follistatin

Ki, fold relative to the Ki of follistatin [3]: 50 fold
Substance: myostatin prodomain peptide (purified from CHO cell conditioned medium) (from UniProt O08689 25-267)
